Consider 4 molecules from PMC3240820 (Structure (London, England : 1993), 2011).

Like-named read-outs stand apart in the source and are kept apart here.

One series has as its target Caskin1 CID-2SAMs G520E (human, UniProt Q8WXD9 375-605, G520E). Put plainly: SEC. For orientation: In gel filtration, larger molecules generally elute earlier.
Series [1] concerns the target T1, CaMK domain of CASK (CASK310), residues 1-310 (UniProt O14936 1-310).
T1 sequence (looked up): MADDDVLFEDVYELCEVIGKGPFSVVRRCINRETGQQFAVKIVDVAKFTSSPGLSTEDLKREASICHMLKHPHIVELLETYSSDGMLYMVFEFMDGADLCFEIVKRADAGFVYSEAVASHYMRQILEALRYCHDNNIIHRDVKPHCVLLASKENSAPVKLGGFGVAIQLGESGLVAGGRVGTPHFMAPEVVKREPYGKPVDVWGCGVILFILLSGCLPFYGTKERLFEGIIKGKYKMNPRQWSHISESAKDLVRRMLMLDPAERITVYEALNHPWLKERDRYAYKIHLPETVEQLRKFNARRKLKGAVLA
As to the kind of experiment: co-precipitation on dialysis into low salt.

The series “crystal structure” deals with the molecule itself. As to the kind of experiment: crystal structure.
Series [2] deals with the molecule itself.

Chain of Caskin1 CID-2SAMs G520E (Q8WXD9 375-605 G520E): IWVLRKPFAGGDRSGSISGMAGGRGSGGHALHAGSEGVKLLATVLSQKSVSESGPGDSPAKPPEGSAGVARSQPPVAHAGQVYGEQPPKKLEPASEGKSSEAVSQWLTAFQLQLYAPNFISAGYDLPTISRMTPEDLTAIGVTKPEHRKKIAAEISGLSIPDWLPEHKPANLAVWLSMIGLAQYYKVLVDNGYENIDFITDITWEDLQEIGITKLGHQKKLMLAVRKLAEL

B1: Caskin1 CID-2SAMs G566K (domain or fragment)
chain: not shown
On to B1, for which the binding result in the series with Caskin1 CID-2SAMs G520E is “binds”.

B2: Caskin1 CID-2SAMs (residues 375-605) (domain or fragment)
chain: not shown
In the case of B2, in series [1], the binding result is listed as “binds”.

B3: Caskin1 6His-(E470-G615) (domain or fragment)
chain: not shown
As for B3, in “crystal structure”, the binding result is “binds”.

B4: Caskin1 SAMs (E470-G615) with the His-tag removed (domain or fragment)
chain: not shown
Take B4: in series [2], the binding result is recorded as “binds”.
